Reference: patent publication US10563171B2, “Method for inducing differentiation of pluripotent stem cells into germ cells” (Kyoto University, priority 2015, dated 2020)

Columns and labels:
[1] = test system: BTAG 585B1-868 hiPSCs; test: Induction of iMeLCs from hiPSCs having induction capacity into BTAG positive cells (FACS of BTAG(+) cells); type: cell-based, human; conditions: added during induction of iMeLC; FIG. 10D, 10E
Method: (§1) Initial mesoderm-like cells (iMeLCs) were induced by seeding hiPSCs maintained in StemFit™ in a 12 well plate coated with human plasma fibronectin (Millipore, FC010) at 1.0-2.0×10^5 cells per well in GK15 medium [GMEM containing 15% KSR, 0.1 mM NEAA, 2 mM L-glutamine, 1 mM sodium pyruvate and 0.1 mM 2-mercaptoethanol (Life Technologies)] containing 50 ng/ml activin A, 3 μM CHIR99021 and 10 μM ROCK inhibitor (Y-27632; Wako Pure Chemical Industries). The hiPSCs were induced by seeding in a low-cell-binding V-bottom 96 wellplate (Thermo, 81100574) at 3.0×10^3 cells per well in GK15 added with 1000 U/ml LlF (Millipore, #LIF1005), 200 ng/ml BMP 4,100 ng/ml SCF (R&D Systems, 455-MC), 50 ng/ml EGF (R&D Systems, 236-EG), and 10 μM ROCK inhibitor. For investigation of conditions and induction of iMeLCs or hPGCLC, PD173074 (StemGent, #04-0008) or LDN193189 (StemGent, #04-0074) was respectively added. Other than the above, WNT3A (R&D Systems, 5036-WN) was used instead of CHIR99021, and BMP2 (R&D Systems, 355-BM), BMP7 (R&D Systems, 354-BP), or BMP8A (R&D Systems, 1073-BP) was used instead of BMP4.
(§2) Floating aggregates containing hPGCLCs were separated by treating with 0.05% Trypsin-EDTA/PBS at 37° C. for 10 min. […] The collected cells were suspended in FACS buffer (0.1% BSA in PBS) and analyzed by a flow cytometer (ARIA III; BD Biosciences). […]

[2] = test system: iMeLCs; test: Induction of BTAG positive cells (hPGCLCs) from iMeLCs in floating aggregates; type: cell-based, human; conditions: combination of BMP4, LIF, SCF and EGF changed; FIG. 11A-D
Method: as §1, §2

B1: BMP4: bone morphogenetic 4 (protein, UniProt P12644 293-408, looked up)
Bone morphogenetic protein 4: SPKHHSQRARKKNKNCRRHSLYVDFSDVGWNDWIVAPPGYQAFYCHGDCPFPLADHLNSTNHAIVQTLVNSVNSSIPKACCVPTELSAISMLYLDEYDKVVLKNYQEMVVEGCGCR
**Q.** With B1 as the molecule, how does the “effect of signaling on iMeLCs induction” value [1] read?
**A.** acts negatively

**Q.** And the “role in induction of BTAG positive cells from iMeLCs” value [2]?
**A.** essential
